Laboratory results taken from paper doi:10.1101/2019.12.23.887380v2.

Substrate: O=[N+]([O-])c1ccc(O[C@@H]2O[C@H](CO)[C@@H](O)[C@H](O)[C@H]2O)cc1
Experiment: purified protein
[1] = WT-1 preparation, absorbance followed 1 h
[2] = tested with WT-1, error exceeds value, poorly determined fit

B1: β-glucosidase B (BglB) (Paenibacillus polymyxa) (protein)
chain: MSENTFIFPATFMWGTSTSSYQIEGGTDEGGRTPSIWDTFCQIPGKVIGGDCGDVACDHFHHFKEDVQLMKQLGFLHYRFSVAWPRIMPAAGIINEEGLLFYEHLLDEIELAGLIPMLTLYHWDLPQWIEDEGGWTQRETIQHFKTYASVIMDRFGERINWWNTINEPYCASILGYGTGEHAPGHENWREAFTAAHHILMCHGIASNLHKEKGLTGKIGITLNMEHVDAASERPEDVAAAIRRDGFINRWFAEPLFNGKYPEDMVEWYGTYLNGLDFVQPGDMELIQQPGDFLGINYYTRSIIRSTNDASLLQVEQVHMEEPVTDMGWEIHPESFYKLLTRIEKDFSKGLPILITENGAAMRDELVNGQIEDTGRHGYIEEHLKACHRFIEEGGQLKGYFVWSFLDNFEWAWGYSKRFGIVHINYETQERTPKQSALWFKQMMAKNGF
Km [1]: 5.4 ± 0.88 mM
kcat [1]: 0.6198 ± 0.056 s⁻¹

B2: β-glucosidase B (BglB) (Paenibacillus polymyxa; W438D) (protein)
chain: MSENTFIFPATFMWGTSTSSYQIEGGTDEGGRTPSIWDTFCQIPGKVIGGDCGDVACDHFHHFKEDVQLMKQLGFLHYRFSVAWPRIMPAAGIINEEGLLFYEHLLDEIELAGLIPMLTLYHWDLPQWIEDEGGWTQRETIQHFKTYASVIMDRFGERINWWNTINEPYCASILGYGTGEHAPGHENWREAFTAAHHILMCHGIASNLHKEKGLTGKIGITLNMEHVDAASERPEDVAAAIRRDGFINRWFAEPLFNGKYPEDMVEWYGTYLNGLDFVQPGDMELIQQPGDFLGINYYTRSIIRSTNDASLLQVEQVHMEEPVTDMGWEIHPESFYKLLTRIEKDFSKGLPILITENGAAMRDELVNGQIEDTGRHGYIEEHLKACHRFIEEGGQLKGYFVWSFLDNFEWAWGYSKRFGIVHINYETQERTPKQSALDFKQMMAKNGF
Km (tested with WT-2): 10.28 ± 2.14 mM
kcat (tested with WT-2): 0.1765 ± 0.0275 s⁻¹

B3: β-glucosidase B (BglB) (Paenibacillus polymyxa; Q22T) (protein)
chain: MSENTFIFPATFMWGTSTSSYTIEGGTDEGGRTPSIWDTFCQIPGKVIGGDCGDVACDHFHHFKEDVQLMKQLGFLHYRFSVAWPRIMPAAGIINEEGLLFYEHLLDEIELAGLIPMLTLYHWDLPQWIEDEGGWTQRETIQHFKTYASVIMDRFGERINWWNTINEPYCASILGYGTGEHAPGHENWREAFTAAHHILMCHGIASNLHKEKGLTGKIGITLNMEHVDAASERPEDVAAAIRRDGFINRWFAEPLFNGKYPEDMVEWYGTYLNGLDFVQPGDMELIQQPGDFLGINYYTRSIIRSTNDASLLQVEQVHMEEPVTDMGWEIHPESFYKLLTRIEKDFSKGLPILITENGAAMRDELVNGQIEDTGRHGYIEEHLKACHRFIEEGGQLKGYFVWSFLDNFEWAWGYSKRFGIVHINYETQERTPKQSALWFKQMMAKNGF
Km [2]: 99.02 ± 247.88 mM
kcat [2]: 0.00433 ± 0.001 s⁻¹

B4: β-glucosidase B (BglB) (Paenibacillus polymyxa; F155G) (protein)
chain: MSENTFIFPATFMWGTSTSSYQIEGGTDEGGRTPSIWDTFCQIPGKVIGGDCGDVACDHFHHFKEDVQLMKQLGFLHYRFSVAWPRIMPAAGIINEEGLLFYEHLLDEIELAGLIPMLTLYHWDLPQWIEDEGGWTQRETIQHFKTYASVIMDRGGERINWWNTINEPYCASILGYGTGEHAPGHENWREAFTAAHHILMCHGIASNLHKEKGLTGKIGITLNMEHVDAASERPEDVAAAIRRDGFINRWFAEPLFNGKYPEDMVEWYGTYLNGLDFVQPGDMELIQQPGDFLGINYYTRSIIRSTNDASLLQVEQVHMEEPVTDMGWEIHPESFYKLLTRIEKDFSKGLPILITENGAAMRDELVNGQIEDTGRHGYIEEHLKACHRFIEEGGQLKGYFVWSFLDNFEWAWGYSKRFGIVHINYETQERTPKQSALWFKQMMAKNGF
Km (tested with WT-1): 6.10 mM
kcat (tested with WT-1): 0.3093 s⁻¹

B5: β-glucosidase B (BglB) (Paenibacillus polymyxa; W123R) (protein)
chain: MSENTFIFPATFMWGTSTSSYQIEGGTDEGGRTPSIWDTFCQIPGKVIGGDCGDVACDHFHHFKEDVQLMKQLGFLHYRFSVAWPRIMPAAGIINEEGLLFYEHLLDEIELAGLIPMLTLYHRDLPQWIEDEGGWTQRETIQHFKTYASVIMDRFGERINWWNTINEPYCASILGYGTGEHAPGHENWREAFTAAHHILMCHGIASNLHKEKGLTGKIGITLNMEHVDAASERPEDVAAAIRRDGFINRWFAEPLFNGKYPEDMVEWYGTYLNGLDFVQPGDMELIQQPGDFLGINYYTRSIIRSTNDASLLQVEQVHMEEPVTDMGWEIHPESFYKLLTRIEKDFSKGLPILITENGAAMRDELVNGQIEDTGRHGYIEEHLKACHRFIEEGGQLKGYFVWSFLDNFEWAWGYSKRFGIVHINYETQERTPKQSALWFKQMMAKNGF
Km [2]: 49.63 ± 324.02 mM
kcat [2]: 0.00025 ± 0.0013 s⁻¹

B6: β-glucosidase B (BglB) (Paenibacillus polymyxa; Y169M) (protein)
chain: MSENTFIFPATFMWGTSTSSYQIEGGTDEGGRTPSIWDTFCQIPGKVIGGDCGDVACDHFHHFKEDVQLMKQLGFLHYRFSVAWPRIMPAAGIINEEGLLFYEHLLDEIELAGLIPMLTLYHWDLPQWIEDEGGWTQRETIQHFKTYASVIMDRFGERINWWNTINEPMCASILGYGTGEHAPGHENWREAFTAAHHILMCHGIASNLHKEKGLTGKIGITLNMEHVDAASERPEDVAAAIRRDGFINRWFAEPLFNGKYPEDMVEWYGTYLNGLDFVQPGDMELIQQPGDFLGINYYTRSIIRSTNDASLLQVEQVHMEEPVTDMGWEIHPESFYKLLTRIEKDFSKGLPILITENGAAMRDELVNGQIEDTGRHGYIEEHLKACHRFIEEGGQLKGYFVWSFLDNFEWAWGYSKRFGIVHINYETQERTPKQSALWFKQMMAKNGF
Km (tested with WT-2): 22.2 ± 5.53 mM
kcat (tested with WT-2): 0.8428 ± 0.2272 s⁻¹

B7: β-glucosidase B (BglB) (Paenibacillus polymyxa; V401A) (protein)
chain: MSENTFIFPATFMWGTSTSSYQIEGGTDEGGRTPSIWDTFCQIPGKVIGGDCGDVACDHFHHFKEDVQLMKQLGFLHYRFSVAWPRIMPAAGIINEEGLLFYEHLLDEIELAGLIPMLTLYHWDLPQWIEDEGGWTQRETIQHFKTYASVIMDRFGERINWWNTINEPYCASILGYGTGEHAPGHENWREAFTAAHHILMCHGIASNLHKEKGLTGKIGITLNMEHVDAASERPEDVAAAIRRDGFINRWFAEPLFNGKYPEDMVEWYGTYLNGLDFVQPGDMELIQQPGDFLGINYYTRSIIRSTNDASLLQVEQVHMEEPVTDMGWEIHPESFYKLLTRIEKDFSKGLPILITENGAAMRDELVNGQIEDTGRHGYIEEHLKACHRFIEEGGQLKGYFAWSFLDNFEWAWGYSKRFGIVHINYETQERTPKQSALWFKQMMAKNGF
Km (tested with WT-2): 8.27 ± 1.24 mM
kcat (tested with WT-2): 0.341 ± 0.0215 s⁻¹
